Laboratory results from the RNAGym collection of RNA variant scans (doi:10.1073/pnas.2313332121).
Fewer inactive variants are shown than the library holds.

B1: TPR 5TU (parent)
chain: GGAUCUUCUCGAUCUAACAAAAAAGACAAAUCUGCCACAAAGCUUGAGAGCAUCUUCGGAUGCAGAGGCGGCAGCCUUCGGUGGCGCGAUAGCGCCAACGUUCUCAACUAUGACACGCAAAACGCGUGCUCCGUUGAAUGGAGUUUAUCAUG

Variants of: B1
Test: polymerase ribozyme fitness, log enrichment relative to wild type (log ratio); higher = more active; in vitro selection for triplet polymerase activity
Summary of the method: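 Mutant libraries were PCR-built and transcribed for each subunit of a heterodimeric triplet polymerase ribozyme and selected for one round in triplicate at −7 °C, frozen, before gel excision of extended constructs and streptavidin-bead capture. Input and output libraries were Illumina-sequenced, keeping genotypes with ≥10 input reads and ≥1 read per output. Fitness is a logarithmic ratio of genotype to wild-type enrichment, in base 2, using inverse-variance-weighted replicate averages.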

Row | Variant | polymerase ribozyme fitness (log ratio)
1 | G50C G80C C93A A98U | ≤ -4.2
2 | G48A C93G | -3.69
3 | G50A U55A | -1.34
4 | G50U U56A A91G C116U | -2.81
5 | A49C A107G U151C | ≤ -4.2
6 | G50C G71U A97U | ≤ -4.2
7 | A49G U53A | -1.54
8 | G48A C69G G84U | -2.41
9 | C51A C75U A98U | -3.28
10 | G50C C87U G100A | ≤ -4.2
11 | G50A U55G A97G U102G | -3.43
12 | G50A C93U A142U | -3.71
13 | G48A A150U | -0.592
14 | G50A G70A C75A | ≤ -4.2
15 | G50A A52G C76U A98G C123G | -2.81
16 | A49G G50A U56A C95U U101C U111G | ≤ -4.2
17 | A49C G84U A107G U111G A120G | ≤ -4.2
18 | G48U A73G | -1.15
19 | G48A U56A U109G | -1.39
20 | G50A A52C C72G A97C C99A U139C G143A | ≤ -4.2
21 | A47U G62A U127C G133U | ≤ -4.2

Row | Variant | polymerase ribozyme fitness (log ratio)
22 | G48A G67U G80C C85U C132U | ≤ -4.2
23 | A49C U55G C76U C87A C99U C105U A120U | ≤ -4.2
24 | A47U G81A C125G A150C | ≤ -4.2
25 | A47U U55G G94A | -0.633
26 | A49G G117A | -0.467
27 | A49G G117U | -0.367
28 | G50A G136U | -2.96
29 | A49C U55G A60U G65A G74C U77A | ≤ -4.2
30 | G50A U53A C85A U109G A115G C116G G126C | ≤ -4.2
31 | G48A C75U C87A G143A | ≤ -4.2
32 | G50C C54U C87A U135C U144C | ≤ -4.2
33 | C51A A89C C93U G117U A137U A150C | ≤ -4.2
34 | A49G C51A U53C C87G | ≤ -4.2
35 | G50U C105U | 0.638
36 | G50U A91G | -2.52
37 | G50U A91U | ≤ -4.2
38 | A49G U53C C114U | -2.54
39 | G48A G136C | -2.57
40 | A49U G58C C75G C118G G124A | ≤ -4.2
41 | G50U C72A A89C G92A C129A A137G A150U | ≤ -4.2
42 | A49U C76A U77G C95G C96U C108U A142G | ≤ -4.2

Row | Variant | polymerase ribozyme fitness (log ratio)
43 | G48C C85A C118A | -1.39
44 | G50A C76A C96U | -3.13
45 | A49G G68U G133A | ≤ -4.2
46 | A49U A73U G88A C105A U144A | ≤ -4.2
47 | A49C G71A | ≤ -4.2
48 | G48U A52C C93U | -3.41
49 | G50A C57A U127A G143U | -4.04
50 | C51A A52C A64C C95U U101C A121C G133C U135G | ≤ -4.2
51 | G50A C75U A91U A150C | ≤ -4.2
52 | G50C C87G | ≤ -4.2
53 | G50U C57G | 0.0255
54 | A49G C69U | -1.39
55 | A49C U56A A64G C87U | ≤ -4.2
56 | A49G G59U A97U G143A | -3.58
57 | A49C G62A C87A G140C | ≤ -4.2
58 | A49U A60U G81U A106G C118A U134C | -3.51
59 | G48A C57A | 0.284
60 | A49C G124U | ≤ -4.2
61 | A49C U55G U61A C96A U111G A119U U148C | ≤ -4.2
62 | A47U G58C U61G G81A | -3.65
63 | G48U G92U U144C | -0.761

Row | Variant | polymerase ribozyme fitness (log ratio)
64 | G50U U55A G126U | -0.316
65 | G50A C51G G83U G84A G141U | ≤ -4.2
66 | G50C G84A | -3.25
67 | G48A G62A G68C U78G C87A A91U A98U | ≤ -4.2
68 | A49U G84U A97C G126C A138G A150G | ≤ -4.2
69 | G50U G84A U148G | ≤ -4.2
70 | G50A C118U A122G A137G A147U | -2.53
71 | A49G G88U C96G U144C U148C U151G | ≤ -4.2
72 | A49C G58A G65A U139A | ≤ -4.2
73 | G48C U53C G136U | -3.16
74 | G50A U56A G88C A106G | ≤ -4.2
75 | A49C C51U C95U C96A G112A G126A | ≤ -4.2
76 | G50A U55G C87U | -1.24
77 | G48C C85U U102G U104A C118U C125A | -4.14
78 | G48U U146G | -1.42
79 | G48A C79A C85G A110U G124A | ≤ -4.2
80 | A49G U53A G59A A142U | -2.64
81 | G50A G84A A142C | -3.15
82 | G50C A73U G80A G81U C95A G100U U151C | ≤ -4.2
83 | G48C U55A C93G | -3.87
84 | A49C C93U | ≤ -4.2
